The target of experiment [1] is CHIKV-IbH35 virus (West African genotype), envelope glycoproteins E2-E1 (Chikungunya virus (strain IbH35)).
Experiment [2] addresses CHIKV-RSU1 virus (Asian genotype), envelope glycoproteins E2-E1 (Chikungunya virus (strain RSU1)).

B1: CHK-263 (mouse monoclonal antibody) (antibody, V domains shown)
VH: QVQLQQSGAELVKPGASVKISCKASGYAFSSYWMNWVKQRPGKGLEWIGQIYPGDGDTNYNGKFKGKATLTADKSSSTAYMQLSSLTSEDSAVYFCARGGLTIDYWGQGTTLTVSS
VL: DIVLTQSPATLSVTPGDSVSLSCRASQSISDNLHWYQQKSHESPGLLIKYASQSISGIPSRFSGSGSGTDFTLSINSVETEDFGMYFCQQSNSWPYTFGGGTKLEIK
For B1, in experiment [1], the EC50 of neutralisation of CHIKV-IbH35 (FRNT on Vero cells) stood at 0.002 µg/mL and the EC90 of neutralisation of CHIKV-IbH35 (FRNT on Vero cells) is 0.051 µg/mL. In experiment [2], this molecule returned an EC50 of neutralisation of CHIKV-RSU1 (FRNT on Vero cells) of 0.004 µg/mL and an EC90 of neutralisation of CHIKV-RSU1 (FRNT on Vero cells) of 0.048 µg/mL.

B2: CHK-152 (mouse monoclonal antibody) (antibody, V domains shown)
VH: QVQLQQPGAALVKPGASAMMSCKASGYTFTSYWITWVKQRPGQGLEWIGDIYPGTGRTIYKEKFKTKATLTVDTSSSTAFMQLNSLTSEDSAVYYCARGYGSPYYALDYWGQGTSVTVSS
VL: DIVLTQSPASLAVSQGQRATISCKASQSVDYDGDSYVNWYQQKPGQSPKLLIYDASNLESGIPARFSGSGSGTDFTLNIHPVEEEDVATYYCQESNEDPRTFGGGTKLEIK
In experiment [1], B2 displayed an EC50 of neutralisation of CHIKV-IbH35 (FRNT on Vero cells) of 0.001 µg/mL and an EC90 of neutralisation of CHIKV-IbH35 (FRNT on Vero cells) of 0.006 µg/mL. Moreover, in experiment [2], the EC50 of neutralisation of CHIKV-RSU1 (FRNT on Vero cells) came out at 0.003 µg/mL and the EC90 of neutralisation of CHIKV-RSU1 (FRNT on Vero cells) came out at 0.015 µg/mL.

B3: CHK-166 (mouse monoclonal antibody) (antibody, V domains shown)
VH: EVRLVESGGGLEQPGGSLKLSCAASGFTFSDYFMYWVRQTPEKRLEWVAYISNGGISTFYSDAVKGRFTISRDNARNTLYLQMSRLKSEDTAIYYCVRQVYGQGYFDYWGQGTTLAVSS
VL: QIVLIQSPAIMSASLGERVTMTCTASSSVSSSYLHWYQQKPGSSPKLWIYSSFSLASGVPARFSGSGSGTSYSLTISTMEAEDAATYYCHQYLRSPWTFGGGSKLEIK
In experiment [1], B3 returned an EC50 of neutralisation of CHIKV-IbH35 (FRNT on Vero cells) of 0.082 µg/mL and an EC90 of neutralisation of CHIKV-IbH35 (FRNT on Vero cells) of 2.58 µg/mL. In experiment [2], this molecule came in with an EC50 of neutralisation of CHIKV-RSU1 (FRNT on Vero cells) of 0.04 µg/mL and an EC90 of neutralisation of CHIKV-RSU1 (FRNT on Vero cells) of 2.18 µg/mL.

B4: CHK-102 (mouse monoclonal antibody) (antibody, V domains shown)
VH: QVQLQQSGAELVKPGASVKISCKTSGYAFSSFWMHWVKQRPGKGLEWIGQIYPGDGDTNYNGKFKDKATLTADKSSNTAYMQLTSLTSEDSAVYFCARNLLFDYWGQGTTLTVSS
VL: EILMTQSPAILSVSPGERVSFSCRASQSIGSNIHWYQQRTNGSPRLLIKYASESISGIPSRFSGSGSGTDFTLSINSVESEDIADYYCQQNNIWPFTFGSGTKLEIK
In experiment [1], B4 displayed an EC50 of neutralisation of CHIKV-IbH35 (FRNT on Vero cells) of 0.006 µg/mL and an EC90 of neutralisation of CHIKV-IbH35 (FRNT on Vero cells) of 0.104 µg/mL. In addition, in experiment [2], the EC50 of neutralisation of CHIKV-RSU1 (FRNT on Vero cells) stood at 0.005 µg/mL and the EC90 of neutralisation of CHIKV-RSU1 (FRNT on Vero cells) was 1.32 µg/mL.

For the origin of these results see paper PMC3630103.
